We go through 2 molecules from US20260209320A1.

Test [1] deals with T1, Peptide 5 (human).
T1 sequence (peptide): QQQPPPPPPPPPPPQ
Kind of test: peptide microarray; Sp H; IgG 10 µg/ml.

In test [2] the target is T1, Peptide 5 (human). Kind of test: peptide microarray; Sp H; IgG 1 µg/ml.
The target of test [3] is T2, Peptide 19 (cyno).
T2 sequence (peptide): PQAQPMLPQPQPPPP
Kind of test: peptide microarray; Sp C1; IgG 1 µg/ml.

Test [4] deals with T2, Peptide 19 (cyno). Kind of test: peptide microarray; Sp C1; IgG 10 µg/ml.
Test [5] has as its target T3, Peptide 27 (cyno).
T3 sequence (peptide): PPPPPPPPPPPPQLP
Kind of test: peptide microarray; Sp C2; IgG 1 µg/ml.

The target of test [6] is T4, Peptide 23 (cyno).
T4 sequence (peptide): QQQQQQQQQQPPPPP
Kind of test: peptide microarray; Sp C2; IgG 1 µg/ml.

Test [7] concerns the target T5, Peptide 41 (mouse).
T5 sequence (peptide): PPQPPPQGQPPPPPP
Kind of test: peptide microarray; Sp M; IgG 1 µg/ml.

Test [8] concerns the target T5, Peptide 41 (mouse). Kind of test: peptide microarray; Sp M; IgG 10 µg/ml.
In test [9] the target is T3, Peptide 27 (cyno). Kind of test: peptide microarray; Sp C2; IgG 10 µg/ml.
Test [10] concerns the target T4, Peptide 23 (cyno). Kind of test: peptide microarray; Sp C2; IgG 10 µg/ml.
For test [11], the target named is T6, Peptide 6 (human).
T6 sequence (peptide): QQPPPPPPPPPPPQL
Kind of test: peptide microarray; Sp H; IgG 10 µg/ml.

Test [12] concerns the target T7, Peptide 15 (human, cyno).
T7 sequence (peptide): QPQPPPPPPPPPPGP
Kind of test: peptide microarray; Sp H; IgG 10 µg/ml.

Test [13] has as its target T8, Peptide 14 (human, cyno).
T8 sequence (peptide): PQPQPPPPPPPPPPG
Kind of test: peptide microarray; Sp H; IgG 10 µg/ml.

Test [14] has as its target T9, Peptide 20 (cyno).
T9 sequence (peptide): QAQPMLPQPQPPPPP
Kind of test: peptide microarray; Sp C2 (second of two rows printed SEQ ID NO: 73); IgG 10 µg/ml.

Test [15] deals with T6, Peptide 6 (human). Kind of test: peptide microarray; Sp H; IgG 1 µg/ml.
The target of test [16] is T7, Peptide 15 (human, cyno). Kind of test: peptide microarray; Sp H; IgG 1 µg/ml.
Test [17] concerns the target T8, Peptide 14 (human, cyno). Kind of test: peptide microarray; Sp H; IgG 1 µg/ml.
Test [18] has as its target T9, Peptide 20 (cyno). Kind of test: peptide microarray; Sp C2 (second of two rows printed SEQ ID NO: 73); IgG 1 µg/ml.
Test [19] deals with T9, Peptide 20 (cyno). Kind of test: peptide microarray; Sp C1; IgG 1 µg/ml.
Test [20] has as its target T9, Peptide 20 (cyno). Kind of test: peptide microarray; Sp C1; IgG 10 µg/ml.
Test [21] deals with T7, Peptide 15 (human, cyno). Kind of test: peptide microarray; Sp C2; IgG 1 µg/ml.
For test [22], the target named is T8, Peptide 14 (human, cyno). Kind of test: peptide microarray; Sp C2; IgG 1 µg/ml.
Test [23] concerns the target T9, Peptide 20 (cyno). Kind of test: peptide microarray; Sp C2 (first of two rows printed SEQ ID NO: 73); IgG 1 µg/ml.
Test [24] concerns the target T9, Peptide 20 (cyno). Kind of test: peptide microarray; Sp C2 (first of two rows printed SEQ ID NO: 73); IgG 10 µg/ml.
Test [25] concerns the target T7, Peptide 15 (human, cyno). Kind of test: peptide microarray; Sp C2; IgG 10 µg/ml.
The target of test [26] is T8, Peptide 14 (human, cyno). Kind of test: peptide microarray; Sp C2; IgG 10 µg/ml.

B1: ATL_0005335 (antibody, V domains shown)
VH: EVQLVESGGGLVKPGGSLRLSCAASGFTFNKAWMNWVRQAPGKGLEWVGRIKSGIDGGTTDYAAPVQGRFTISRDDSKNTVYLQMNSLNTEDTAVYYCIPPPYYYYYGLDVWGQGTTVTVSS
VL: QSALTQPASVSGSPGQSITISCTGTSSDIGSYNLVSWYQQHPGNAPKPLIYEGSKRPSGVSARFSGSKSGNTASLTISGLQPEDEADYYCSSYAGFNTLVFGGGTKVTVL
B1: the corrected fluorescence intensity in the test with Peptide 5 (human) [1] amounted to 593; in the test with Peptide 5 (human) [2], 0; in the test with Peptide 19 (cyno) [3], 79; with Peptide 19 (cyno) [4], 453; with Peptide 27 (cyno) [5], 0; with Peptide 23 (cyno) [6], 0. Besides, the corrected fluorescence intensity in the test with Peptide 41 (mouse) [7] was determined as 256; in the test with Peptide 41 (mouse) [8] it was 0; with Peptide 27 (cyno) [9], 604; in the test with Peptide 23 (cyno) [10], 524.

B2: ATL_0005331 (antibody, V domains shown)
VH: EVQLVESGGGLVKPGGSLRLSCAASGFTFNKAWMNWVRQAPGKGLEWVGRIKSGIDGGTTDYAAPVQGRFTISRDDSKNTVYLQMNSLNTEDTAVYYCIPPPYYYYYGLDVWGQGTTVTVSS
VL: QSALTQPRSVSGSPGQSITISCTGTSSDVGSYNLVSWFQQHPGKAPKLIIYEVNKRPSGVPDRFSGSKSGNTASLTVSGLQAEDEADYYCGSYAGTNNVFGTGTKLTVL
As to B2, the corrected fluorescence intensity with Peptide 5 (human) [1] was 382; with Peptide 6 (human) [11] it was 397; with Peptide 15 (human, cyno) [12], 382; with Peptide 14 (human, cyno) [13], 412; with Peptide 20 (cyno) [14] it was 0; with Peptide 5 (human) [2], 0. In addition, the corrected fluorescence intensity with Peptide 6 (human) [15] is 0; with Peptide 15 (human, cyno) [16], 134; with Peptide 14 (human, cyno) [17], 84; in the test with Peptide 20 (cyno) [18] it was 51.5; with Peptide 20 (cyno) [19], 178; with Peptide 20 (cyno) [20], 504. Also, the corrected fluorescence intensity came to 99.2 with Peptide 27 (cyno) [5]; 50 with Peptide 15 (human, cyno) [21]; 45.5 with Peptide 14 (human, cyno) [22]; 0 in the test with Peptide 20 (cyno) [23]; 0 with Peptide 20 (cyno) [24]; 321 in the test with Peptide 27 (cyno) [9]. In addition, the corrected fluorescence intensity with Peptide 15 (human, cyno) [25] was found to be 478; in the test with Peptide 14 (human, cyno) [26], 464.
